Reference: the DeepSol protein solubility set

Experiment: soluble on expression in E. coli; label from the status in PepcDB or PDB records

Sequence	soluble on expression in E. coli
MGSDKIHHHHHHMGGRGSGKTRAGAEWVSGMALGLPPFAGKPSGHIALVGETFNDAREVMVDGPSGILSVSRLVRPRYEASRRRLIWDNGAVATLFSSEDPDSLRGPQFDAAWCDELAKWKNPQETWDMLQFGLRLGDNPRQVVTTTPRAVPLLKALLTDRTVSMTHMRTAENAGNLAEGFMQTIARRYAGTRLGRQELDGELVEERPGALWSRDRIEQCFEENPPPLARIVVAVDPPASSGKASDACGIVVAGIDAEGVGHVLADESMTMAKPHQWARRAIALYHTHEADAIVAEVNQGGEMVAAEDPSVPVLKRRASRGKWLRAEPVAALYEQGRVRHAGRFPALEDEMCDFAPEGLSSGRSPDRLDALVWALGELMLGADHKPRIRRFG	not soluble
MLNYELELWEKGLLVAGVDEAGRGPLAGPVVAAAVILPPFTEPFIKGDSKKLTKKEREEAYEEIKNKALAVGTAVVDSAVIDRVNILRATKLAMKRALKDLKYHYDIVITDYVKLEGENCMPLVKGDEKSLNCACASIIAKVIRDKIMEIYHKIYPDFNFASNKGYPSKTHLEKVEKGEYTEIHRKSFSPLKKKLF	soluble
QDSTQNLIPAPPLISVPLQPGFWTERFQGRWFVVGLAGNAVQKERQSRFTMYSTIYELQEDNSYNVTSILVRGQGCRYWIRTFVPSSRPGQFTLGNIHSYPQIQSYDVQVADTDYDQFAMVFFQKTSENKQYFKVTLYGRTKGLSDELKERFVSFAKSLGLKDNNIVFSVPTDQCIDN	soluble
MGSDKIHHHHHHMSQSIPEPHWHQTPQEFLASWSTSRGNLRRFFEEHALPPIDARTQREAGEAAAELAASELFGIKLDEYTSGLDSVSGSFEAAGAQHVTTANPEIPQDIGAAAFFDIDNTLIQGSSLVVFAMGLAKKKYFKLNEILPVAWKQIKFRVTGNENAHDVAEGRQQALEFIKGRRVDELVALCEEIVDNNMSEKLWPGTKQLADQHIADGQQVWLVSATPVQLAQALAKRLGFTGALGTVAEVKDGVFTGRLVGDILHGPGKLHAVAALATIERLDLSRCTAYSDSINDVPMLSMVGTAVAINPDRPLAKVAKQHGWAVRDYRSLRKAIRTFGIPALVTAAFSFGGWKAWRR	not soluble
MSKPLPLVTRQGDRIVIVNGLRTPFAKQATAYHGVPAVDLGKIVVSELLARSGISSELIDQLVFGQVVQMPEAPNIAREIVLGTGMSVHTDAYSVSRACATSFQAVANVAESIIAGSVDIAIAGGADSSSVLPIGVSKALARTLVDANKARSLSQKLKLFSRLRLRDLLPVAPAVAEYSTGLRMGDTAEQMAKTYGISREDQDALALRSHQLAAEAWQQGWLHDEVMTAYIPPYREAIIEDNNIRKDSTLAQYAKLRPAFDRQHGSVTAANSTPLTDGAAAVLMMSESKAKALGLPPLGYLRSFAFSAIDVWQDMLLGPSYATPLALDRAGITLADLTLIDMHEAFAAQTLANLKMFASDTFAREKLGRSQAIGEVDMSKFNVLGGSIAYGHPFAATGARMITQTLNELRRRGGGLGLTTACAAGGLGAAMILEVE	not soluble
MSLRSRDITLTGTYLPNTPVTLVVDGVAQVQGMTDSAGRFRLTGTLEPGRNRVYVMGEGPLASREYAVRYLPPYTDMAGHWAEAVVDALHERGVVSLYPLPRFEPEAQVTRMEFAVMVARALRLPAAEEQAPFTDVAVMPQWALLEVAAAVKAGIIKGMPDGSFAPDRLVTRAEMAAMLTRALAWAGLEVKPEAPEFADQAEIPDWAVEPVAAAVRHGLIKGYPDGTFRPGSPTTRAEAATMVHRLLQTVIGLNPEGHHHHHH	soluble
GSAPAKEPSVNTALVPQLSTISRALTPSPVMVLENIEPEIVYAGYDSSKPDTAENLLSTLNRLAGKQMIQVVKWAKVLPGFKNLPLEDQITLIQYSWMSLSSFALSWRSYKHTNSQFLYFAPDLVFNEEKMHQSAMYELCQGMHQISLQFVRLQLTFEEYTIMKVLLLLSTIPKDGLKSQAAFEEMRTNYIKELRKMVTKCPNNSGQSWQRFYQLTKLLDSMHDLVSDLLEFCFYTFRESHALKVEFPAMLVEIISDQLPKVESGNAKPLYFHRK	soluble
APGVSTILDNRNNPIAWVYKQRRFEIPSEAIPQSMKDAIVSIEDRRFYEHKGVDIQGNLRAIVTNIFAGGVAQGASTIDQQYVKNFLLLVKSDNPEEQAAATETSIPRKLREMRMASTIDSTLSKDDILTRYLNLVHLGNGAFGVEAAARTYFGKGAPELSLAQSAMFAGIVQSSSY	not soluble
MGSDKIHHHHHHMQDKVIPSLSAAIAKEVERRTQGVDWCETEIAGLDFYRQSAPTSCSVCVVEPSIALVVQGAKAMTLGEQTFRYDPSRFLITSLDLPAKMQVLEASEEAPYLGVVIKLDLAVMSDLMLQTPLTMQKETASDQGMILGATTPKLLGAISRLVNLLDEPESIAVLAPLIKREIYWRVLMSEQGARLRQIVSAGSHGLRIARTIEWLKVHYDQHLSVDSLADMARMSKSTFHHHFRRLTSMSPLQYQKRLRLLEARRLMLGEDIDASAAAYRVGYESPSQFSREYSRLFGASPKKDVATQWQ	not soluble
MNMPMTERIRAGKLFTDMCEGLPEKRLRGKTLMYEFNHSHPSEVEKRESLIKEMFATVGENAWVEPPVYFSYGSNIHIGRNFYANFNLTIVDDYTVTIGDNVLIAPNVTLSVTGHPVHHELRKNGEMYSFPITIGNNVWIGSHVVINPGVTIGDNSVIGAGSIVTKDIPPNVVAAGVPCRVIREINDRDKHYYFKDYKVESSV	soluble
MGSDKIHHHHHHVNFRDLGGYPVGDGRRTRWGRLFRSDSLGALTEEDLALVAALDLYRVVDFRLPHERELHPNRLPVGAGPKVTEIGFWPDGVPEMLKALRELRIDAAGIERAVTGHYRRYAVHHRAEYRRMLEAVEEAAGRPTLIHCVSGKDRTGFGAAVILMALGVPRTVIVEDYLLTNDCRRDIGHLMPSGTTESVAEAFTAARPAYIEAAFESIDTAFGGIDDYLAHGLGFGEQRLQRLRECLTEPATGSASLLSPRRAGNP	not soluble
KPKSAVAPPGAPKKEHVNVVFIGHVDAGKSTIGGQIMYLTGMVDERTLEKYEREAKEKNRETWYLSWALDTNQEERDKGKTVEVGRAYFETEKKHFTILDAPGHKSFVPNMIGGASQADLAVLVISARKGEFETGFEKGGQTREHAMLAKTAGVKHLIVLINKMDDPTVNWSNERYEECKEKLVPFLKKVGFNPKKDIHFMPCSGLTGANLKEQSDFCPWYIGLPFIPYLDNLPNFNRSVDGPIRLPIVDKYKDMGTVVLGKLESGSICKGQQLVMMPNKHNVEVLGILSDDVETDSVAPGENLKIRLKGIEEEEILPGFILCDLNNLCHSGRTFDAQIVIIEHKSIICPGYNAVLHIHTCIEEVEITALICLVDKKSGEKSKTRPRFVKQDQVCIARLRTAGTICLETFKDFPQMGRFTLRDEGKTIAIGKVLKLVPEKD	soluble
MNNKKPVCAEGMVKMEKKSLLILGTASHVGKSSVVTAICRILSRSYRVAPFKAQNMSLNSWITKDGKEIGIAQAIQAKAAGTEPTADMNPVLLKPKGDCVSQVVLLGEPYADKSAGQYYDSIEEMHAVLKGALERLWKEHDIIVMEGAGGAAEINLYERDIVNVGTARLTKAPIILVGDIERGGVFASLYGTIALLPEDVRKNVKGFIINKFRGDIEILRPGLKQLEDKTGIPVLGVLPHFKLRIPSEDSVSLGDKEDSKAEKEIEVAVIRLPRISNFTDFEPLEGLVKVRYVDINEELGNPDAIMIPGTKNTVNDLLDLRASGMDKKIQAFKGKVPIFGICGGYQMLGRTIFDSGVENGVEAEFEGLGLLDIGTRFGEYKKRTVQVTKKVNGYGPILRPIDGEEIKGYEIHMGVTDSNRTVFGDDGAIDEDGFVIGTYLHGLFDNRNIRNALVRYLYEKKGLEYEPDEAISENDAYEELANVVEQNIDMEKLFEIAGV	not soluble
MTPWLTVVGIGEDGFSGLGKQARRALLGAGRVFGSPRQLALLPRCVTAEQLAWPSPFSLAPVLALRGEPVCVLASGDPMFYGVGASLARQVPAAEMRVLSLPSSCALAAARLGWPLQDLQVVSLVARPLAALNAHLHSGMRLLVLSNDGDSPAAIAAQLRGQGFGPSRLQVFEHLGGVDERALAGTAQDWPHTGIAALNLVAIECLATPDAPRLHRLAGLPDAAYRHDGQLTKRDVRAITLARLAPQPGELLWDVGAGCGSIGIEWMRAHPACRALAIEADEGRQGLIEHNRDALGVPGLQLVRGKAPAALQGLEQPDAIFIGGGVTRTGVLDLCWASLRPGGRLVANAVTLQSELALAHFREQHGGELTRIHVAHAQPLGAFDTWRQALPITLLEVLKPADA	not soluble
MSFAPMLLATINNSIGNKDKHVSLEYLIGLFMDKKTTNLSNTDKYIIGTIQTEALEQEIEWFSQDYHIPMENILHVLSINPYQ	not soluble
